In IntAct's records for PubMed 19858347:

B1: Killer cell immunoglobulin-like receptor 2DS4 (Homo sapiens), P43632 (parent)
chain: MSLMVIIMACVGFFLLQGAWPQEGVHRKPSFLALPGHLVKSEETVILQCWSDVMFEHFLLHREGKFNNTLHLIGEHHDGVSKANFSIGPMMPVLAGTYRCYGSVPHSPYQLSAPSDPLDMVIIGLYEKPSLSAQPGPTVQAGENVTLSCSSRSSYDMYHLSREGEAHERRLPAVRSINGTFQADFPLGPATHGGTYRCFGSFRDAPYEWSNSSDPLLVSVTGNPSNSWPSPTEPSSKTGNPRHLHVLIGTSVVKIPFTILLFFLLHRWCSDKKNAAVMDQEPAGNRTVNSEDSDEQDHQEVSYA
B2: Killer cell immunoglobulin-like receptor 2DL1 (Homo sapiens), P43626 (parent)
chain: MSLLVVSMACVGFFLLQGAWPHEGVHRKPSLLAHPGRLVKSEETVILQCWSDVMFEHFLLHREGMFNDTLRLIGEHHDGVSKANFSISRMTQDLAGTYRCYGSVTHSPYQVSAPSDPLDIVIIGLYEKPSLSAQLGPTVLAGENVTLSCSSRSSYDMYHLSREGEAHERRLPAGPKVNGTFQADFPLGPATHGGTYRCFGSFHDSPYEWSKSSDPLLVSVTGNPSNSWPSPTEPSSKTGNPRHLHILIGTSVVIILFILLFFLLHRWCSNKKNAAVMDQESAGNRTANSEDSDEQDPQEVTYTQLNHCVFTQRKITRPSQRPKTPPTDIIVYTELPNAESRSKVVSCP
B3: Killer cell immunoglobulin-like receptor 2DL3 (Homo sapiens), P43628 (parent)
chain: MSLMVVSMVCVGFFLLQGAWPHEGVHRKPSLLAHPGPLVKSEETVILQCWSDVRFQHFLLHREGKFKDTLHLIGEHHDGVSKANFSIGPMMQDLAGTYRCYGSVTHSPYQLSAPSDPLDIVITGLYEKPSLSAQPGPTVLAGESVTLSCSSRSSYDMYHLSREGEAHERRFSAGPKVNGTFQADFPLGPATHGGTYRCFGSFRDSPYEWSNSSDPLLVSVTGNPSNSWPSPTEPSSETGNPRHLHVLIGTSVVIILFILLLFFLLHRWCCNKKNAVVMDQEPAGNRTVNREDSDEQDPQEVTYAQLNHCVFTQRKITRPSQRPKTPPTDIIVYTELPNAEP

Variants of: B1
Conditions: with hlac_human HLA-C
Target sequence in this assay (P10321 whole entry): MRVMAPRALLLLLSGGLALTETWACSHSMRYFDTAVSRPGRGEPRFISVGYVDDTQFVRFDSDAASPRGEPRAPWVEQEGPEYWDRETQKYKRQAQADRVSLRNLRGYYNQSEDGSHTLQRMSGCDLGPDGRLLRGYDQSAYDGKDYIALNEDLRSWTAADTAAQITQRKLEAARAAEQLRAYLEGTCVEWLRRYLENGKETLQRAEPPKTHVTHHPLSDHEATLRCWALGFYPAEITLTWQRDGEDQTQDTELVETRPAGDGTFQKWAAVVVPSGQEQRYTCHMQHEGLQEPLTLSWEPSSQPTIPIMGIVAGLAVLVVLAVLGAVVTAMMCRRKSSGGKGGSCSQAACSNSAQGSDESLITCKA

effect of a mutation on the interaction	Variant
with no effect	P92Q;V93D
disrupting interaction strength	K65M
with no effect	A205S

Variants of: B1
Conditions: with hlac_human HLA-C
Remark: another data set of the same source
Target sequence in this assay (P10321 whole entry): as above

effect of a mutation on the interaction	Variant
decreasing interaction strength	P92Q;V93D
decreasing interaction strength	K65M
decreasing interaction strength	A205S
decreasing interaction strength	I123T

Variants of: B1
Conditions: with hlac_human HLA-C
Remark: another data set of the same source
Target sequence in this assay (P10321 whole entry): as above

effect of a mutation on the interaction	Variant
increasing interaction strength	P92Q;V93D
causing an interaction	K65M

Variants of: B1
Conditions: with hlab_human HLA-B
Target sequence in this assay (P01889 whole entry): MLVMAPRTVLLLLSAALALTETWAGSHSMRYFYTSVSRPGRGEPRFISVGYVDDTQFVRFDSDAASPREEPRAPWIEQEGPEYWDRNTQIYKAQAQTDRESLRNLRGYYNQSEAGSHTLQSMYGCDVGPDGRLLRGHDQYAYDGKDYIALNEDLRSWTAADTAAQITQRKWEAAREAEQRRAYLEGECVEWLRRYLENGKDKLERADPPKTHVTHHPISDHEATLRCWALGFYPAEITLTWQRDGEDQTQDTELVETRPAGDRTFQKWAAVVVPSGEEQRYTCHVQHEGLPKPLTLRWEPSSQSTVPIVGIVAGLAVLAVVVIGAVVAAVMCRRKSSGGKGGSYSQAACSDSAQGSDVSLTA

effect of a mutation on the interaction	Variant
causing an interaction	P92Q;V93D
causing an interaction	A205S

Variants of: B1
Conditions: with hlac_human HLA-C
Remark: another data set of the same source
Target sequence in this assay (P10321 whole entry): as the sequence (P10321 whole entry) above

effect of a mutation on the interaction	Variant
causing an interaction	P92Q;V93D
causing an interaction	A205S

Variants of: B1
Conditions: with hlac_human HLA-C
Remark: another data set of the same source
Target sequence in this assay (P10321 whole entry): as above

effect of a mutation on the interaction	Variant
with no effect	K65M

Variants of: B2
Conditions: with hlac_human HLA-C
Target sequence in this assay (P10321 whole entry): as above

effect of a mutation on the interaction	Variant
increasing interaction strength	Q92P
decreasing interaction strength	T105P
decreasing interaction strength	Q92P;D93V;T105P
decreasing interaction strength	Q92P;D93V

Variants of: B2
Conditions: with hlac_human HLA-C
Remark: another data set of the same source

effect of a mutation on the interaction	Variant
decreasing interaction strength	Q92P

Variants of: B3
Conditions: with hlac_human HLA-C

Variant	effect of a mutation on the interaction
Q92P;D93V	decreasing interaction strength
Q92P	increasing interaction strength

Further lines, results first:

effect of a mutation on the interaction	Variant
decreasing interaction strength	Q92P;D93V;T105P
decreasing interaction strength	T105P

Variants of: B3
Conditions: with hlac_human HLA-C
Remark: another data set of the same source

effect of a mutation on the interaction	Variant
disrupting interaction strength	Q92P;D93V;T105P
disrupting interaction strength	Q92P;D93V
disrupting interaction strength	T105P

Variants of: B3
Conditions: with hlab_human HLA-B
Target sequence in this assay (P01889 whole entry): as the sequence (P01889 whole entry) above

effect of a mutation on the interaction	Variant
decreasing interaction strength	Q92P
